Earlier results, collected in paper PMC4596410.

Biological target: Lys115 (UniProt position 115, LSAYPKKLGYP)

Acetoacetate decarboxylase (not stated in the article (Clostridium acetobutylicum inferred))
pKa: 6
